For test [1], the target named is T1, PAR-1 N-terminal tail peptide (TR33-62) (artificial).
T1 sequence (peptide): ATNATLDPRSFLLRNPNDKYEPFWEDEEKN

Test [2] has the same target. This is another data set of the same source.
Test [3] deals with endothelial protein C receptor (EPCR) on cells (Homo sapiens (Human)) (UniProt Q9UNN8).
Test [4] deals with endothelial protein C receptor (EPCR), as in the binding assays (Homo sapiens (Human)) (UniProt Q9UNN8). Put plainly: apparent Kd; binding to immobilized soluble EPCR and to K293 cells transfected with wtEPCR (format of the value not told).

Where only a bound is given, the exact number is not on record here.

Turning to “recombinant wild-type activated protein C (enzyme)”, in test [1], the cleavage of the TR33-62 peptide at Arg41, HPLC (fold lower kcat/Km than thrombin) was 25000.

Take S360A-APC (enzyme): the PAR-1 peptide (TR33-62) cleavage (% rwt-APC), catalytic efficiency by HPLC in test [2] was below 3 % rwt-APC.

In test [2], RR229/230AA-APC (enzyme) showed a PAR-1 peptide (TR33-62) cleavage (% rwt-APC), catalytic efficiency by HPLC of 116 % rwt-APC.

Turning to “PTGla-APC (APC with prothrombin residues 1-46) (from UniProt P00734) (enzyme)”, in test [3], the concentration for half-maximal inhibition of staurosporine-induced endothelial apoptosis (fold higher concentration) was 24. Besides, the Kd in test [4] was above 300 nM.

The values above are taken from US9192657B2.
